We go through 50 sequences from the domain aggregation screens of Martell et al. (2025).

The series can be described thus: soluble fraction after stress (log2 fold change); higher = more stays soluble; pooled small domains, quantitative proteomics. The following applies: stress: 50 degC. An outline of the steps:
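Each library was heated to 50°C as a stress step. The libraries, made up of small protein domains, were pooled and analysed at high throughput by quantitative proteomics. The reported value is the base-two logarithm of the fold change in each protein's soluble amount after stress, taken as a measure of aggregation propensity. The higher the value, the more protein stays in solution.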

Consider “HMSGLLTTSKLAQKHKMKTEPMLEKLTAAGYLEWRDDKHSLTEQGKKAGGQFKTGRFGAYFLWPEDLV”, for which the “soluble fraction (log2)” value is -0.259. The figure for “HMGDSVLNDKLNTLAGLDEERFKWVLASLNPNNSYSTHSDKMSALMWLVSYFNDEADLKETVPPLPI” is -0.0724; for “HMVLSVRDRMVQILDQVKTGEYKRIEDFFSADEGRTGFVVSFVAILELVKGGLLTITQSKNLAPIYVRLPN” it is -0.19.

For the sequence “HMQTTDTGAIETIVDELMAANPDKVEAYRGGKTGLQGFFMGQVMKQLGGQGNPKVISAIVTEKLE”, the “soluble fraction (log2)” value was no less than 0.62. For “HMESNWLTYAKRIQSIADTGMTFAVDDFDKERYQELADISSKMLADLSNIPIGRIENLLGPLGQ”, the “soluble fraction (log2)” value was -0.75. For the sequence “HMNLTSSDIQKILSYALLADNSITLNSIEESMASLKLKKMSAEQLIELLEVSSMVLRNTNNSWSIL”, the “soluble fraction (log2)” value is -1.95. The result for “HMLSSREEKILNYLNEHQIITRKKAQELLETSQSTAGRVLKIMVDNGLIVQYGGSRSIWYELIK” reads -0.939; that for “HMGASGVEVPDVAGMSTAQAVSSLEQKGFVVNRTESYDAGVEKGNVISQSPEGGTKAPNGSAVTIRISQGA”, 0.428. The result for “HMKVNQFEVEGNQRYSTEEIAKASGVSKGDNLFLVNKTETARKLLDELAYVRSVNIKRKLPDTLVITVAE” reads 0.399; that for “HMSTRYVRTPAGQAEIQARVFKLSRPVRNLLLVINDSRSIDDWLVQVHGITADDVAMLRAEGLIAEVS”, -2.4. The result for “HMDPSDQLYTVPPSAEGLRLDLFLVQHVPHMTRALATQLTGAGQVRVNGRRAKKGDRLPSGAQVRLEQAP” reads -0.256; that for “HMGEPLSPDARALTNVLRHYRGWAEPGELARKSGLGSRERVLTAAQSLVNAGLADIERGMVRPTAALMEVQ”, 0.0805; that for “HMQISSSEVLEKVVDEILSANPKSIEDYKNGKLQAAGFLMGQVMKATKGQANPAVAKELIEAKLKD”, 0.419. “HMRDISTDTSAWTFQDIKRYYDPQDLLTEKQVGQALSLIKGRNLNPLLNEVYIVAYKKKNGGAEFSLIV”: the “soluble fraction (log2)” value was -0.28.

Take “HMRDPVDKDNYLGDWDKNKTYPAGYVMTFGDKNYLALQEVPAGTKPGATDPDPFWVLDTGKTLKD”: the “soluble fraction (log2)” value is -0.0888. For “HMVANDQILNQYGISDREAEIIGLLIEGLSNQQIAKQLYISPNTVKTHIKNIYAKVGVNNRLQLFSLLK”, the “soluble fraction (log2)” value was -0.173. The result for “HMSVFTPLTRSELETFLAPYELGRLLDFQGIAAGSENTNYFISLEKGEYVLTLVERGPVAEMPFFIELLD” reads -0.982. With “HMQELNDQQRLAILNEWNNRATNPPSLLELVRVAFPDAEGADGRSWHGKKVKEFLSTRQIKARAS”, the “soluble fraction (log2)” value turned out to be 0.119. For “HMQNWFADPKFEMFEDYGDAQSFYDTETKNIYVVMAEYGQKGSNTIQEITPDSEEYIPNYEKYKEYMENK”, the “soluble fraction (log2)” value was -0.387. The result for “HMANDNFPLKLGSKGPRVLQLKTMLIQSLSNDALPKGRSSDAFDSELEALLSRNNLPTVIDETNFRVLTK” reads 0.386. “HMVAAITDLPVKSVNGRQMYYYVVRKGETVYSLTHTLGITHDRLVKANRSVEDGLRAGQILYFPVSEFG”: the “soluble fraction (log2)” value was -1.42.

With “HMQLDDDQKEELILKLIDSLDTTKKGAPLTELAREAAKSNIGESELEEITTSLLDKGLVYEPTIGKMKR”, the “soluble fraction (log2)” value was determined as 0.216. The figure for “HMDMNVQNYRGLSLDRAKKLISDLGLKYEVVGTGDSVVKQVPSSGSRMSKENGRIILYTENVEDA” is 0.00608; for “HMSPPALAVQRDGSNVQISWPGAEEGWRLESSAEPSGAAWDLIAQNPTPVGGRWTVSLTEPTGRRFYRLVK” it is 0.0321; for “HMGGGEYTVAKGDTLWKIAAQTLGSPTRYAEIYNLNKDVIEETARGRGKRDSSNGHWLFPGTALKIPGT” it is 0.355. The figure for “HMGAEIRDKVRAALAGLNPRAAEIFVMRYFDGYGNREIARLLNTSWSTIAVTLHRTRAKLQKELK” is -0.101; for “HMELLPAERRQQLVDWFKSNQAGTSQDLARMFGISVSTIRRDLDLLASEGLVKRTHGGAVSIR” it is 0.0027. The figure for “HMKFIPPSLEEARAYFVEKGSSEPEAEKFVNHFDSIGWKVGRARTPMKKWKSAANNWIANNREWNQ” is -0.407; for “HMTNIDIEKSIKNTITANYDDVLNYHNEDDNKTFASGDSRYSFDYDEKTKTLIVFTNSKVDAVFVDGIKKK” it is -0.0966. Take “HMAGLYSLLLVELPMERLPEDLPAIKAAWLKTGDTEAFKVALQAMSSRGWTIAVPGKHRDTQMTQL”: the “soluble fraction (log2)” value worked out at 0.35.

Regarding “HMKKEQVIVPNVVGDTYDVALRKLTDAKLKVGETFPADREGHQGVIEKQSPAAGETVDEDTPVALFFKV”, the “soluble fraction (log2)” value was 0.0344. For “HMTYTPRAGSLASQVIGFFRHNPDEELLLDDITDKFDATRGNIHTLLAEAVRFKLLARYRNDDGDYVYKPG”, the “soluble fraction (log2)” value is -2.97. The result for “HMSASTGTVSYKSGATTVWNSPSWHQVKRYVTFGDTVQLLGKTVDQNGATWYKVGDNQWIPELYLNVAG” reads -0.508; that for “HMDTNELIDRYVNEVGQHLPRKTRADIEMELRSLLLDTLEEQSGGEPTPKMAAEVLREFGHPEEIAAQYH”, -0.0557; that for “HMGTVISVDKARSIALAKVPGASANDIRIHLDRDDGRQIYEGEIYYNRMEYEFEIDASTGTIIEWSAEHW”, -1.73. “HMEDLAERLDNLSTMYAKMDPVRAAQVLLESKNKSENIEVLKRLKPKSLGLILENMPPREAYDYVSELQ”: the “soluble fraction (log2)” value came out at 0.0712. The figure for “HMDDEDLAFLQREFVSYQQAMDYYGLGYKPVVRLSHISGSVYKIGKKVLIRRNIFEEYLRNHV” is -0.00496; for “HMEELELTIDGEMVGRIDKQLGHHFDQFSRSQIQHWIEDGHVLVNGKQVKPKYKLLVGDHVQIIPEEPQK” it is 0.25; for “HMQWGKVRRLPSGRYQASYVHKGTRYTAPETYTVQGRAHGWIESERRLIVTDTWTPPDTRPS” it is -1.78. The result for “HMNQEFRMPNAIKGVELSEENKQQLTQGEKVFLEGMTSAKGSLFDAYVYIDQEKKTLAFDFPEK” reads 0.184. With “HMDAYLPETVQKLLDVMDFDVPYSAAQLMEKLGLKSRASFRKLYLLPALEKNLIAMGVPDKPTSRNQTYIR”, the “soluble fraction (log2)” value is -0.417. The result for “HMTYKPAADFKPSDTSSLKEGMKVEHPKFGFGTVMKMEEVGTERKARINFADFGEKTLLLSFAKLKIHEN” reads 0.0858; that for “HMHAPIAELKKVFKEEFADQEVTVRQLAGSVLLSGNVKTAELRENLESVAKQFFPRVINNLKLI”, -0.000214. For “HMGHTVHAVPEAADRQRLDVFVGNLHPTISRAYIQKLSKEDQILVNGKPEKAGFKLRTGHSVSVPDMSE”, the “soluble fraction (log2)” value amounted to 0.0769. For the sequence “HMSDEINYVIQINGKNRAEAEFGANLDKESIENLALEHERIKELLNGLTVRKIIVVPKKLVNIVA”, the “soluble fraction (log2)” value is -0.312. The result for “HMLALVREQIERNVSNPTDEDIRKIRHDVMEVITRAGADAATVDIAIEIDSQKNILRAIATGATEL” reads -0.0114; that for “HMTNVLSEQESKLLERMNKAGLNAEITVKKAAQILNLSESAARNVLNRLVGKGYLTVDTSRLPFLFQR”, -0.0793; that for “HMPELSITDADIIVAGGRGMGSAENFGLIRELAGLLGAAVGASRVVVDAEWVDQKHLIGQTGK”, -0.112. As to “HMPHFFISTSDVNQDIITVSDKENFHHIARVLRSKVGETLLLVDENRTQYKVVIQNIDSKSITTKVVETLK”, the “soluble fraction (log2)” value is -0.138.

Regarding “HMSAQPMEYSRFYSDVTQGRVAEVEIEGREINGRLSTGERFKTFSPETDNKALIGHLLDNGVVIEGKPP”, the “soluble fraction (log2)” value is 0.234.
